Experimental data taken from patent publication US20250002564A1 (HOSPITAL FOR SICK CHILDREN, published 2025).
Where two headings read alike, the source gives them in different places.

What was measured:
[1] = target: T1, SARS-CoV-2 receptor binding domain (RBD), wild type, His-tagged (SARS-CoV-2, UniProt P0DTC2 319-541); experiment: method and format not given
T1 construct: domain: RBD; also called His-tagged RBD; BEI NR52309

[2] = target: T1, SARS-CoV-2 receptor binding domain …; experiment: method and format not given; remark: listed apart in the source
[3] = target: T1, SARS-CoV-2 receptor binding domain …; experiment: BLI competition on His-tagged RBD, after 1st Ab 46
[4] = target: T1, SARS-CoV-2 receptor binding domain …; experiment: BLI competition on His-tagged RBD, after 1st Ab 52
[5] = target: T1, SARS-CoV-2 receptor binding domain …; experiment: BLI competition on His-tagged RBD, after 1st Ab 80
[6] = target: T1, SARS-CoV-2 receptor binding domain …; experiment: BLI competition on His-tagged RBD, after 1st Ab 82
[7] = target: T1, SARS-CoV-2 receptor binding domain …; experiment: BLI competition on His-tagged RBD, after 1st Ab 236
[8] = target: T1, SARS-CoV-2 receptor binding domain …; experiment: BLI competition on His-tagged RBD, after 1st Ab 298
[9] = target: T1, SARS-CoV-2 receptor binding domain …; experiment: BLI competition on His-tagged RBD, after 1st Ab 324
[10] = target: T2, SARS-CoV-2 RBD mutant L452R (SARS-CoV-2, UniProt P0DTC2 319-541); experiment: BLI, IgG on mutated RBD compared with WT RBD; negative = decreased
T2 construct: domain: RBD; also called mutated RBD L452R

B1: mAb 236 (antibody, V domains shown)
VH: QVQLVQSGAEVKKPGASVKVSCKASGGTFTSYGINWVRQAPGQGLEWMGWMNPNSGNTGYAQKFQGRVTMTRDTSTSTVYMELSSLRSEDTAVYYCASRGIQLLPRGMDVWGQGTTVTVSS
VL: not shown
notes: also called IgG 236; Antibody 236
With B1 the Kd [1] was 145 nM, the Kd [2] was 145 nM and the “RBD binding of 2nd Ab after 1st Ab (heat map)” value (“RBD binding of 2nd Ab” below) [3] was 1.2. For the same binder, the “RBD binding of 2nd Ab” value [4] was 1, the “RBD binding of 2nd Ab” value [5] was 0.1 and the “RBD binding of 2nd Ab” value [6] was 0.2. The “RBD binding of 2nd Ab” value [7] was 0.3, the “RBD binding of 2nd Ab” value [8] was 0.2 and the “RBD binding of 2nd Ab” value [9] was 0.4. The “Affinity change vs WT RBD (fold-change)” value [10] was -4.1.
